Test results: the RNAGym collection of RNA variant scans (doi:10.1073/pnas.2313332121)

B1: TPR t1 (parent)
chain: GACCAAUCUGCCCUCAGAGCUCGAGAACAUCUUCGGAUGCAGAGGAGGCAGGCUUCGGUGGCGCGAUAGCGCCAACGUCCUCAACCUCCAAUGCAUCCCACCACAUGAUGAUGCCUGAAGAGCCUUGGUUUUUUG

Variants of: B1
Assay: polymerase ribozyme fitness, log enrichment relative to wild type (log ratio); higher = more active; in vitro selection for triplet polymerase activity
In short: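 Both subunits of a heterodimeric triplet polymerase ribozyme were given their own mutant library, built by PCR and transcribed. Each library was annealed with a biotinylated primer, the partner subunit and triplets, incubated frozen at −7 °C, and its extended constructs gel-excised, captured on streptavidin beads and amplified by RT-PCR, all in one round done in triplicate. Fitness is the logarithm of genotype enrichment relative to wild-type enrichment, with replicates averaged by inverse-variance weighting. That logarithm is base 2, and Illumina-sequenced genotypes needed ≥10 input reads and ≥1 read per output.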

Variant | polymerase ribozyme fitness (log ratio)
A5U C62G A100U G120U | -3.08
C15A G71A | -2.63
U87A G127U | -0.745
C4G C11G C49A G51C G58A C73U C79U | -4.64
A50U G110U | -4.06
G42C A74U U96G C124U | -1.27
C79U C80U U112A | -2.98
G44C A111G | -0.351
C12G C62U C89A C94U | -2
A74G A103G G117U U133G | -6.53
G17U C49U C115U C123G U130A | -4.8
G44A A118G | -1.56
U38C C56U C98U G110U | -5.51
A27C C72U | -2.78
U9G C89A A100U U116A | -4.84
A6G A41U C85G A119U U125G | -6.15
C70U G135A | -1.42
A43G G63C U96C | -2.76
G10U U59C C85U | -0.716
A37U A66C C76U | -2.83
C11G U78C C82U G117A | -0.181
A37C G44U C62A | -2.41
U55C U59A C88U | -0.406
C4G C13A A24C G63A G71C G113U G128C | -6.72

Variant | polymerase ribozyme fitness (log ratio)
A6U C15A U21G G58A A90G U112C G127A | -4.37
G71C U81A U109A | -6.73
A2C C12A G110A U133A | -2.17
C72U C73A U81A C85U G122A | -4.88
C11G A16C A29G G45U | -4.19
U33C G61A U116C C124G | -5.41
A5G C11A C70A G71A A121C G122U G127A | -3.67
C13A A26G C53U C104U | -5.09
G61A C97G | -3.34
C72U A121C U131C | 0.346
G110C G120C | -4.2
A26U A37G C53A G120C C123A | -2.54
C11U C124U | 1.63
C86A A95C | -2.08
U38G C53G | -1.52
C56U C104G C115A | -4.93
G61C G77U | -1.86
C56U A83C | 1.56
A50C A121U | 2.16
G61C G122A G128U G135U | -3.92
G51C G69U | -2.95
A5U A18C G113A A118U U131A | -4.6
U38A A83C U92C C124A | -1.34
C28G G57C A83C C123A | -2.8

Variant | polymerase ribozyme fitness (log ratio)
C4G C73U C101A U129A | -1.48
U55C U87G G135U | -1.63
A6C U109C G110U C114U | -6.23
G39A C62U A83U U87G | -0.927
C11A C72G C79A C85A A121U | -1.86
U9G G51A | -1.96
C11A G39A A43U U59C A91C G113A A118G C124G U125A | -4.98
C8A A41C G44U C62U C99U A111U G127A | -7.45
G42U C49U | -2.98
U21G G39C A41G C115A | -2
C56A C102U | -1.54
G42U G44U G45A U54G C89G | -2.57
C8U A46C G120C | 1.49
G51A A103G | -6.42
C4U A6C G48U G69U C86U C88A G113C | -3.07
A2G C15U A43U G45U C56U C62U | -6.15
C49G G110U | -2.51
G44C A83G A111C | -2.73
A6C G57C C79A C85U | -2.83
U7G G39U C49U | -0.696
G42U A119U | -1.27
C4A U9G G42C | -3.15
G17C G60C | -4.24
C8U U14C A75U G120A | 1.44

Variant | polymerase ribozyme fitness (log ratio)
G42U A83C G127U | -2.25
C15A A37G G45U G93U U112C G122C C123G U125A | -5.64
U21A G44U C97U G113A | -2.33
U129C U133G | 0.0769
U55C G57A G69U C89U G110U U129A | -3.64
U14G C76A | -2.76
A46C C79G | -2.93
G47U U59C C101U U125G U126C | -3.12
C20U G60C C99U | -4.59
G71C C85U C94U U132A | -2.18
C12U C34U C72A U81C C102U U109G | -5.97
C72G C82U U131G | -0.338
C15U G44A C56A C62A G71C U131A | -3.4
C40U C56G C88G G93A | -2.89
C8A C34U C53U C62G U109A | -6.27
C11G A43C C62U U129C U130G | -3.83
C40A G63C C123U | -0.868
G39A G58A A91U | -2.28
U14C A84C | -2.42
G51U C72A U130G | -3.04
A27U G60A C62U G120C | -2.69
G42U C82U | -1.44
C72U U78A A90U C123U | -1.05
G39C C79A | -3.06

Variant | polymerase ribozyme fitness (log ratio)
C53G G77U C86A | -1.02
C31G A41C G58C C62U | -8.8
G23U C73A | -6.12
U9G G36C G69U A103C C104U | -2.45
U9G U32C G52C | -0.471
G58C G60U G93U U96G | -1.73
C89A G135U | -2.26
G44U | -1.16
U21A U116G G122U C124G U126A | -1.21
G35U A90C | -6.98
A27G C70U | -2.05
G51U C62U | -3.78
A6G C13U C98U A119U | -2.09
C53A G120U G127A | -0.445
G36C G60U | -0.402
G52A C73G | -2.63
C72U C85U G93U | -2.45
G42U C53U U59G C89A C124A | -0.557
A16C G61C C88U | -4.85
G48U C62G C104A U106C | -5.05
C8U C13U A46C U59A G71U C79G A83G U109G U132A | -7.26
A41G G42A | -2.57
C22U A26U A27U A41C G71C C82G A111C A118U G127C | -6.27
A18U C79A G93A U116A C124U | -6.2

Variant | polymerase ribozyme fitness (log ratio)
A46C G69A | -2.87
G52A A68G G93A | -5.07
U78A G93C | -0.506
C28G G57C A84U C94U A118U | -2.35
U54C G57C C72G U112C | 0.604
G107A U116C | -5.17
G51A A100U | -4.16
C70U C85U A91C | -3.52
G52A C53A | -0.436
C3U G39A C40U G60C C94A | -2.98
C56U U81G U112G C124G | -0.448
A83U C98A C123A U125A | -4.08
U14A G47C | -2.72
C28U C49G | -3.16
G71U C123A | 1.94
G60U C89G C101U U112A C115U | -4.63
G47A C62U G113U | -4.52
C72U G127C | -1.75
A66C C85G U106A | -2.61
C11U C53A G69U G93C C94U | -0.279
C56U G61U C104U U112G G117U C124U | -5.56
U14G G19A G42A C56A G93C | -5.15
U14C C70G | -4.01
A29C C31G G61U C101U A121U C124A | -5.89

Variant | polymerase ribozyme fitness (log ratio)
G69A C76A C123U | -5
A29C G45A C115U | -4.57
C79A C114A | -2.46
C40U C98A A121C | -4.03
A2G U7C U9C G51U | -2.87
C4A G17A C53G C70G U106G G113A C115U U131A | -6.14
C12G C98U | -0.616
G35A G63C | -5.56
A27G C40U | -2.39
C72U C97U G120A G122A | -1.22
C11U C15A A29C C34A G71U C79U C104A G117U | -6.92
C99U A119U U130A | -3.7
A5U C12U G71U | -0.82
G48U U54C C82G C115G | -3.12
C12G G39A C82G C114U | -3.7
C12A A66G G69U G71U | -2.65
A46C G48A G51A | -3.51
G45A U130C | -1.02
U9G C40G C53G U130G | -1.2
C49A U59A A74U C114U | -2.86
C3U C49A | 0.209
U7A A37U U54G G127A G128U | -3.62
C13U A18C A90C U96A | -2.27
